These results are taken from US20240207432A1 (BIOSION, published 2024).

In experiment [1] the target is T1, human TROP2-his protein (human, UniProt P09758 27-274).
T1 construct: Biotin-labelled in the ELISAs, unlabelled analyte in Biacore; also called biotin-labeled human TROP2-his protein; biotin human Trop2-his
T1 sequence: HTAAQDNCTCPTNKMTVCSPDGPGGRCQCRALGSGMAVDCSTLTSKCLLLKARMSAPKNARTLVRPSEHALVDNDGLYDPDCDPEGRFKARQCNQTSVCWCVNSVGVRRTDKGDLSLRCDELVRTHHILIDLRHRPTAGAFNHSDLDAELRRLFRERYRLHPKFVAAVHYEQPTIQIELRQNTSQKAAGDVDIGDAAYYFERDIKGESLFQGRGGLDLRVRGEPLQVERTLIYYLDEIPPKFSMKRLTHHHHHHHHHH
Description: competitive ELISA: mouse A1H3C5H8E12 coated at 2 ug/mL, antibody premixed with biotin human TROP2-his; blocked: binding of TROP2-his to coated A1H3C5H8E12 (self-competition); no lower plateau reached at 80 nM. The procedure: (§1) The mouse anti-TROP2 antibodies were tested for epitope binding in a competitive ELISA assay. […] ELISA plates were washed once with wash buffer (PBS+0.05% v/v Tween-20, PBST) and then blocked with 200 μl blocking buffer (5% w/v non-fatty milk in PBST) for 2 hours at 37° C. While blocking, the anti-TROP2 antibodies or controls were diluted with biotin labeled human TROP2-his protein (SEQ ID NO: 67, 34 ng/mL in 2.5% wA non-fatty milk in PBST), starting at 80 nM with a 5-fold serial dilution, and incubated at room temperature for 40 minutes. After plate washing for 4 times, the antibody/TROP2-his protein mixtures were added to the antibody coated plates, 100 μl per well. After incubation at 37° C. for 40 minutes, plates were washed 4 times again using wash buffer. Then the plates were added and incubated with 100 μl Peroxidase Streptavidin (1:10000 dilution in PBST buffer. Jackson Immunoresearch, Cat #016-030-084) for 40 minutes at 37° C. Plates were washed again using wash buffer. Finally, TMB was added and the reaction was stopped using 1M H₂SO₄. The absorbance of each well was read on a microplate reader using dual wavelength mode with 450 nm for TMB and 630 nm as the reference wavelength, and the OD (450-630) values were plotted against antibody concentration. Data was analyzed using Graphpad Prism software and IC₅₀ values were reported.

The target in experiment [2] is T2, cynomolgus TROP2-his protein (cynomolgus monkey, UniProt P09758 27-272 (human entry), limits assumed).
T2 construct: no cleavage site is stated; also called Cynomolgus monkey TROP2-his protein; monkey TROP2
T2 chain: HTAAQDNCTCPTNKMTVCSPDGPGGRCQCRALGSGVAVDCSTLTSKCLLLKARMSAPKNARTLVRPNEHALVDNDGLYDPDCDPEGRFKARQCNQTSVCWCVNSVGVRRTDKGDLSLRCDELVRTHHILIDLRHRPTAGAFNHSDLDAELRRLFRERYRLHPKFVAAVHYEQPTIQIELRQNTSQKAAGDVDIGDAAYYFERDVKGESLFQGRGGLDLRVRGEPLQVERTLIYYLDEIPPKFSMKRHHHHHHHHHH
Description: indirect ELISA, cynomolgus TROP2-his coated, OD(450-630). The procedure: The anti-TROP2 antibodies of the disclosure were tested for their cross-reaction with cynomolgus TROP2 proteins. Briefly, 96-well micro plates were coated with 100 μl 2 μg/ml cynomolgus TROP2-his proteins (prepared in-house with SEQ ID NO: 70) in carbonate/bicarbonate buffer (pH 9.6) overnight at 4° C. ELISA plates were washed once with wash buffer (PBS+0.05% v/v Tween-20, PBST) and then blocked with 200 μl/well blocking buffer (5% w/v non-fatty milk in PBST) for 2 hours at 37° C. […] After a final wash, plates were incubated with 100 μl/well TMB (Innoreagents) at room temperature. The reaction was stopped 3-10 minutes later at room temperature with 50 μl/well 1M H₂SO₄, and the absorbance of each well was read on a microplate reader using dual wavelength mode with 450 nm for TMB and 630 nm as the reference wavelength. The OD (450-630) values were plotted against antibody concentration. Data was analyzed using Graphpad Prism software and EC₅₀ values were reported.

The target in experiment [3] is T1, human TROP2-his protein. As to the kind of experiment: capture ELISA, captured antibody, biotin human TROP2-his in solution, OD(450-630). How it is done: (§2) Plates were washed once with wash buffer (PBS+0.05% v/v Tween-20, PBST) and then blocked with 200 μl/well blocking buffer (5% w/v non-fatty milk in PBST) for 2 hours at 37° C. […] Plates containing captured anti-TROP2 antibodies were incubated with biotin-labeled human TROP2-his protein (prepared in house, SEQ ID NO: 67, 56.7 ng/mL in 2.5% w/v non-fatty milk in PBST, 100 μl/well) for 40 minutes at 37° C., washed 4 times, and incubated with streptavidin conjugated HRP (1:10000 dilution in PBST, Jackson Immuno Research, Cat #016-030-084, 100 μl/well) for 40 minutes at 37° C. After a final wash, plates were incubated with 100 μl/well ELISA substrate TMB (Innoreagents, Cat #TMB-S-002) at room temperature. The reaction was stopped in 3-10 minutes at room temperature with 50 μl/well 1M H₂SO₄, and the absorbance of each well was read on a microplate reader using dual wavelength mode with 450 nm for TMB and 630 nm as the reference wavelength. The OD (450-630) values were plotted against antibody concentration. Data was analyzed using Graphpad Prism software and EC₅₀ values were reported.
(In general: An ELISA detects its analyte on a solid surface through an enzyme-linked reagent.)

Experiment [4] concerns the target T1, human TROP2-his protein. As to the kind of experiment: capture ELISA, antibody captured on anti-human IgG Fc coat, biotin human TROP2-his in solution, OD(450-630). How it is done:
as §2
For the capture ELISA, AffiniPure Goat Anti-Human IgG, Fcγ fragment specific (Jackson Immuno Research, Cat #109-005-098) was used instead of AffiniPure Goat Anti-Mouse IgG, Fcγ fragment specific, 100 μl/well.

The target of experiment [5] is T1, human TROP2-his protein. As to the kind of experiment: competitive ELISA: BM1 coated at 1 ug/mL, antibody premixed with biotin human TROP2-his; blocked: binding of TROP2-his to coated BM1 (self-competition). How it is done:
as §1

Experiment [6] addresses T1, human TROP2-his protein. The experiment is described as above. How it is done:
as §1
This is another data set of the same source.

B1: mouse antibody A1H3C5H8E12 (antibody, V domains shown)
VH: QVQLQQSGAELVRPGTSVKMSCKAAGYTFTNYWIDWVKQRPGHGLEWIGNIFPGGFYTNYNEKFKGKATLTADTSSSTAYMQLSSLTSEDSAIYYCARGGVFDYWGQGTTLTVSS
VL: DILLTQSPAILSVSPGERVSFSCRASQSIGTSIHWYQQRTNGSPRLLIKYASESISGIPSRFSGSGSGTDFTLSINSVESEDIADYYCQQSNSWPYTFGGGTKLEIK
notes: Mouse monoclonal IgG purified from hybridoma supernatant
Regarding B1, in experiment [1], the concentration for half-maximal inhibition (IC50) (commonly the point on the concentration scale where inhibition reaches its midpoint) was 7 nM.

B2: benchmark (in house prepared sacituzumab) (antibody, human IgG1, kappa, V domains shown)
VH: SVQLQQSGSELKKPGASVKVSCKASGYTFTNYGMNWVKQAPGQGLKWMGWINTYTGEPTYTDDFKGRFAFSLDTSVSTAYLQISSLKADDTAVYFCARGGFGSSYWYFDVWGQGSLVTVSS
VL: DIQLTQSPSSLSASVGDRVSITCKASQDVSIAVAWYQQKPGKAPKLLIYSASYRYTGVPDRFSGSGSGTDFTLTISSLQPEDFAVYYCQQHYITPLTFGAGTKVEIKR
notes: also called BM; BM1
In the case of B2, the EC50 – broadly, the concentration at which the effect is half-maximal – was 0.138 nM in experiment [2], 0.141 nM in experiment [3] and 0.27 nM in experiment [4]. Moreover, the half-maximal inhibitory concentration (IC50) in experiment [5] is 1.28 nM; in experiment [6] it was 0.632 nM.
